In PMC10341547:

How the values were obtained:
[1] = target: large-conductance calcium-activated potassium (BKCa) channel alpha subunit (rat (endogenous in mesenteric arteries)) (UniProt Q62976)
[2] = target: large-conductance calcium-activated potassium (BKCa) channel alpha subunit (rat (endogenous in mesenteric arteries)) (UniProt Q62976); remark: listed apart in the source

Sequence of large-conductance calcium-activated potassium (BKCa) channel alpha subunit (rat (endogenous in mesenteric arteries)) (Q62976 whole entry): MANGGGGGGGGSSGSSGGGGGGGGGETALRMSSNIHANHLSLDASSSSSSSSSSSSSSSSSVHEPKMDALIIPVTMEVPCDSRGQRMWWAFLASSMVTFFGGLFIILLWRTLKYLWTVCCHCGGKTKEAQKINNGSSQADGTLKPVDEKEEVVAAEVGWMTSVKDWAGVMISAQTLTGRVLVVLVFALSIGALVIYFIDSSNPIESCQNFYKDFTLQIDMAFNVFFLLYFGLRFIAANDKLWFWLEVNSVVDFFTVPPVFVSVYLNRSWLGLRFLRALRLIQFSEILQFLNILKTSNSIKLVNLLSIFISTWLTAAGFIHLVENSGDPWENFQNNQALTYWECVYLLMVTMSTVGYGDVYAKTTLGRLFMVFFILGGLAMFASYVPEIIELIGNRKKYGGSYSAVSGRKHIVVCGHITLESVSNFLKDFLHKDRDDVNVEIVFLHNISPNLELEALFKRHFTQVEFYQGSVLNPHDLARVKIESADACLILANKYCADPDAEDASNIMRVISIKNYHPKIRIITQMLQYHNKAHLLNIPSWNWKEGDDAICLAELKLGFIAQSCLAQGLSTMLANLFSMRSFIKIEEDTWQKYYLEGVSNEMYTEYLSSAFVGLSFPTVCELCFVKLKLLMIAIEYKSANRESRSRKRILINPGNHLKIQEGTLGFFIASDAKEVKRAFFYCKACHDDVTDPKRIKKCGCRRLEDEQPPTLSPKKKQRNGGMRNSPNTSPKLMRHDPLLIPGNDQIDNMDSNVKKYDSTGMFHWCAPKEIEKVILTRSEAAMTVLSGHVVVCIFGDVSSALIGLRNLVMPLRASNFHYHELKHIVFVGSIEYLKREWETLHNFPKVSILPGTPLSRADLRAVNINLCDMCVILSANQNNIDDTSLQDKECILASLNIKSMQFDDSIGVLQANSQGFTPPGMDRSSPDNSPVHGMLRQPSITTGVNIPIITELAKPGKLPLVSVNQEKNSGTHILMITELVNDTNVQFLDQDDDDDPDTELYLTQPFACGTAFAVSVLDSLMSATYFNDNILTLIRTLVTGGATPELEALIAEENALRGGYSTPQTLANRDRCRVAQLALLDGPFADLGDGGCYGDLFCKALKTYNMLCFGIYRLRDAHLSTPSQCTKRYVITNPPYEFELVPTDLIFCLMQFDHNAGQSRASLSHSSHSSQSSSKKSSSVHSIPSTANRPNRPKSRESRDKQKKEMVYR
Sequence of inositol 1,4,5-trisphosphate receptor 1, P29994 1-2750 (natural protein) (P29994 whole entry): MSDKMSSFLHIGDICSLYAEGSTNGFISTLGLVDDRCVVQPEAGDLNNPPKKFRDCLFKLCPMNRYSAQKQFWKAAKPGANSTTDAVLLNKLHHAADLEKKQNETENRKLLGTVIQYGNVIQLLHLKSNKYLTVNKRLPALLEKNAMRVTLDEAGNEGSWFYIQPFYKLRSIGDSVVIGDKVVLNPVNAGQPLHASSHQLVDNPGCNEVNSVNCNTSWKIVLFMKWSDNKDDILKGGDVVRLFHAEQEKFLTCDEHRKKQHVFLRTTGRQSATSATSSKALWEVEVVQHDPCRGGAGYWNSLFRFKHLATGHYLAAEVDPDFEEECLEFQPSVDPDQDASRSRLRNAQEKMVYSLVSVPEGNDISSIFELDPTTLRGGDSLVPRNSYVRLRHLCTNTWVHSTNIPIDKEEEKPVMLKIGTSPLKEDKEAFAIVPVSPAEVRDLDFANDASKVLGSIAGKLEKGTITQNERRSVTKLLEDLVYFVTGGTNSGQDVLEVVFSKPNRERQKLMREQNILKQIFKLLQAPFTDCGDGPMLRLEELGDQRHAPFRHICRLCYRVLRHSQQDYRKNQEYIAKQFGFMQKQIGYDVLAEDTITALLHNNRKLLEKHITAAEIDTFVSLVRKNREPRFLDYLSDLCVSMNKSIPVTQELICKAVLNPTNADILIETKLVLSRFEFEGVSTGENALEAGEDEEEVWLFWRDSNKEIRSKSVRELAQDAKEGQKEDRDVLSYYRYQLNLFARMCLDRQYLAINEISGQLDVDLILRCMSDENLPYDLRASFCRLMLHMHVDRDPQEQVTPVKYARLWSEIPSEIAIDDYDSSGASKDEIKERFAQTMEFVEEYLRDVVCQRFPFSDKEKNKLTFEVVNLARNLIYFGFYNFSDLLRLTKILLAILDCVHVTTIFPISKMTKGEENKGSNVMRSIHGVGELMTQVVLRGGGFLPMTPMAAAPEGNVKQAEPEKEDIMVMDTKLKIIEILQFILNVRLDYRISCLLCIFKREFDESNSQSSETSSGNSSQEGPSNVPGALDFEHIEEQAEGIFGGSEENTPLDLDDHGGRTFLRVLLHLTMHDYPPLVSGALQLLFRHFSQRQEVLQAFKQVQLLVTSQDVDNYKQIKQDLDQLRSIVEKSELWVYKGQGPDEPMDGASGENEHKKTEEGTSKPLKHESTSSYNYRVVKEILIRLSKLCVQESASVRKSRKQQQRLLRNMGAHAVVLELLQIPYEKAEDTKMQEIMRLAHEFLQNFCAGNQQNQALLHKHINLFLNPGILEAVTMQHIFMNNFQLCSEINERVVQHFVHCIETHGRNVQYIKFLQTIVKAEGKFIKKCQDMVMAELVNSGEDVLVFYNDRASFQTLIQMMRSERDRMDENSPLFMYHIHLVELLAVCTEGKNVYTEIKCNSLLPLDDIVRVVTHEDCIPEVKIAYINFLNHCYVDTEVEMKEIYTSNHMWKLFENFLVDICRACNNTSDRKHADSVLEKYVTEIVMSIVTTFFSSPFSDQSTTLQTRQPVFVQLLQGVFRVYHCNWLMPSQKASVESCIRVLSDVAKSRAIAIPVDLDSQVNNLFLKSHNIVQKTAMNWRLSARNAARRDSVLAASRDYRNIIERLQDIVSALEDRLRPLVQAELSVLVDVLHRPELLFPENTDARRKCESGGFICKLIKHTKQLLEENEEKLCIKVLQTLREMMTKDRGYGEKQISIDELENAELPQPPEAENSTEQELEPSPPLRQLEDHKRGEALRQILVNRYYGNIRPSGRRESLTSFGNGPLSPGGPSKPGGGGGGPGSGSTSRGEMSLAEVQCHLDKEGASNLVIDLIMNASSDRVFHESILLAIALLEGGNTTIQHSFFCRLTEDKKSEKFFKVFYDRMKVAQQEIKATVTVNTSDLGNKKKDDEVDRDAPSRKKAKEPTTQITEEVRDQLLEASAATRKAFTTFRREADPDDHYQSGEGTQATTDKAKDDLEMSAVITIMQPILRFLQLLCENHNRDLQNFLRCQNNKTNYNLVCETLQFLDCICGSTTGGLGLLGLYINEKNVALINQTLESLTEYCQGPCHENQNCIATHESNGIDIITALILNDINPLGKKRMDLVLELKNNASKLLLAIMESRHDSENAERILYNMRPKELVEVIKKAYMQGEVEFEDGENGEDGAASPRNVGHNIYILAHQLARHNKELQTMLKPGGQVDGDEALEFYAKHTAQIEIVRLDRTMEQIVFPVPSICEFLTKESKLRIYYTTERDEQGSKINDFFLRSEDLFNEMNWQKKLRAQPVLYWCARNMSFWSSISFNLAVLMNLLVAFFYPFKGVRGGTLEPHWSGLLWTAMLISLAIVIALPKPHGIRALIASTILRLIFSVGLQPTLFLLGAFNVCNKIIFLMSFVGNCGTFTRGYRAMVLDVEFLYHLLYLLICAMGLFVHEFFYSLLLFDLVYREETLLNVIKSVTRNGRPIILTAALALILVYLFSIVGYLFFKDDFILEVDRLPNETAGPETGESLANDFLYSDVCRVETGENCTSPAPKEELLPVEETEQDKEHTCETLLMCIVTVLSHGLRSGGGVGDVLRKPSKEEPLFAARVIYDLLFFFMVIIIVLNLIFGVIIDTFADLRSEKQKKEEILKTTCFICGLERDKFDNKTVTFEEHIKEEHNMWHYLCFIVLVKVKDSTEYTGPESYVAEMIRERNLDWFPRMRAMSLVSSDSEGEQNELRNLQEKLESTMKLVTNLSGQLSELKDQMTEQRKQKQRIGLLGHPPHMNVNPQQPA

inositol 1,4,5-trisphosphate receptor 1, P29994 1-2750 (natural protein)
whole-cell BKCa current density at +60 mV in mesenteric VSMCs of WKY rats before and after the IP3R agonist Adenophostin A [1]: 142 pA/pF | whole-cell BKCa current density at +60 mV in mesenteric VSMCs of SHR before and after the IP3R agonist Adenophostin A [2]: 65.6 pA/pF
